In assay [1] the target is T1, recombinant human IgE, SE44 (human, UniProt P01854-1 1-428).
T1 construct: The IgE used as antigen in the ELISA screens (coated, or biotinylated); also called monoclonal human IgE (SE44); biotinylated SE44
Description: ELISA titration of Fab on plate-coated SE44 (Example 6). On the procedure: (§1) The constructed library was subjected to an ELISA screen for improved binding to the recombinant human IgE, SE44. Clones with binding affinity greater than murine TES-C21 Fab were isolated and sequenced. Clone ID #4, 49, 72, 76, and 136 were further characterized.
(§2) Plates were coated with 0.25 ug/mL (for purified Fab 0.1 ug/ml) SE44 in carbonate coating buffer overnight at 4° C. Coating solution was removed and the plates were blocked with 200 uL/well 3% BSA/PBS for 1 hour at 37° C.

In assay [2] the target is T2, human IgE (human, UniProt P01854-1 1-428).
T2 construct: it may be SE44; also called intact human IgE; biotinylated IgE
T2 sequence (P01854 other isoform, or with tags, fused parts or gaps): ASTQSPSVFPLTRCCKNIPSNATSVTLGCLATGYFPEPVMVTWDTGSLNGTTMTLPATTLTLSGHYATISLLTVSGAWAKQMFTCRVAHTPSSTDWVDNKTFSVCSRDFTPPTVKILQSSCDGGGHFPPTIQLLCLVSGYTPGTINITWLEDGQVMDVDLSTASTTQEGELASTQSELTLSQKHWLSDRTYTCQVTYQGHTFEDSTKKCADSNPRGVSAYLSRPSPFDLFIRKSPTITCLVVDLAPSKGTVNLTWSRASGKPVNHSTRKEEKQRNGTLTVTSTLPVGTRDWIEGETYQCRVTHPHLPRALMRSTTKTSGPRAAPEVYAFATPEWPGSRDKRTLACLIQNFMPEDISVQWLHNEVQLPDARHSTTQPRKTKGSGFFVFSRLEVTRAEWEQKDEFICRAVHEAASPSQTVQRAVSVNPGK
Description: relative to parent TES-C21.

Assay [3] has as its target T2, human IgE. Kind of assay: method not stated at the table (Example 10 lists Biacore analysis); target IgE taken from context.
Assay [4] deals with T2, human IgE. Kind of assay: soluble receptor assay: inhibition of the binding of biotinylated IgE to plate-coated FcεRI alpha chain (Example 8). On the procedure: A 96 well assay plate suitable for ELISA was coated with 0.05 mL 0.5 μg/mL FcεRI alpha-chain receptor coating buffer (50 mM carbonate/bicarbonate, pH 9.6) for 12 hours at 4-8° C. The wells were aspirated and 25 μL blocking buffer (PBS, 1% BSA, pH 7.2) was added and incubated for 1 hour at 37° C. In a separate assay plate the samples and reference TES-C21 MAbs were titered from 200 to 0.001 μg/mL by 1:4 dilutions with assay buffer (0.5% BSA and 0.05% Tween 20, PBS, pH 7.2) and an equal volume of 100 ng/mL biotinylated IgE was added and the plate incubated for 2-3 hours at 25° C. The FcεRI—coated wells were washed three times with PBS and 0.05% TWEEN 20 and 50 μL from the sample wells were transferred and incubated with agitation for 30 minutes at 25° C. Fifty/μL/well of 1 mg/mL Streptavidin-HRP, diluted 1:2000 in assay buffer, was incubated for 30 minutes with agitation and then the plate was washed as before. Fifty μL/well of TMB substrate was added and color was developed. The reaction was stopped by adding an equal volume of 0.2 M H₂SO₄ and the absorbance measured at 450 nm.

For assay [5], the target named is T1, recombinant human IgE, SE44. Description: ELISA titration of Fab on plate-coated SE44 (Example 6). On the procedure:
as §1, §2
The source holds these as a separate data set.

Read-outs that look alike come from different tables or passages of the source.

T1 sequence (P01854 other isoform, or with tags, fused parts or gaps): as above

B1: humanized TES-C21 Fab clone 136 (Fab, V domains shown)
VH: QVQLVQSGAEVMKPGSSVKVSCKASGYTFSMYWLEWVRQAPGHGLEWMGEISPGTFTTNYNEKFKARVTFTADTSTSTAYMELSSLRSEDTAVYYCARFSHFSGSNYDYFDYWGQGTLVTVSS
VL: EIVMTQSPATLSVSPGERATLSCRASQSIGTNIHWYQQKPGQAPRLLIYYASESISGIPARFSGSGSGTEFTLTISSLQSEDFAVYYCQQSDSWPTTFGGGTKVEIK
notes: Retains 5 murine heavy chain framework residues; light chain framework is 100% human; also called Clone ID #136; Humanized clone 136
With B1, the concentration for a half-maximal effect (EC50 (read off the curve)) in assay [1] is ~0.04 mg/L.

B2: Anti-IgE CL-2C (antibody, V domains shown)
VH: QVQLVQSGAEVMKPGSSVKVSCKASGYTFSWYWLEWVRQAPGHGLEWMGEIDPGTFTTNYNEKFKARVTFTADTSTSTAYMELSSLRSEDTAVYYCARFSHFSGSNYDYFDYWGQGTLVTVSS
VL: EIVMTQSPATLSVSPGERATLSCRASQSIGTNIHWYQQKPGQAPRLLIYYASESISGIPARFSGSGSGTEFTLTISSLQSEDFAVYYCQQSWSWPTTFGGGTKVEIKT
notes: ATCC PTA-5678; also called MAb 2 (CL-2C); clone 2C
For the molecule B2, in the assay with human IgE [2], the “Fold Increase in Binding Affinity” value was found to be 417 fold. In the assay with human IgE [3], this molecule returned a Kd of 1.47 pM. In addition, the “IC50 (read off the curve)” value with human IgE [4] was ~0.3 mg/L.

B3: Anti-IgE CL-5A (antibody, V domains shown)
VH: QVQLVQSGAEVMKPGSSVKVSCKASGYTFSWYWLEWVRQAPGHGLEWMGEIEPGTETTNYNEKFKARVTFTADTSTSTAYMELSSLRSEDTAVYYCARFSHFSGSNYDYFDYWGQGTLVTVSS
VL: EIVMTQSPATLSVSPGERATLSCRASQSIGTNIHWYQQKPGQAPRLLIYYASESISGIPARFSGSGSGTEFTLTISSLQSEDFAVYYCQQSWSWPTTFGGGTKVEIKT
notes: ATCC PTA-5679; also called MAb 1(CL-5A); clone 5A
Consider B3, for which the “Fold Increase in Binding Affinity” value with human IgE [2] is 3890 fold. For the same molecule, in the assay with human IgE [3], the affinity, expressed as Kd, was 0.158 pM.

B4: Anti-IgE CL-5I (antibody, V domains shown)
VH: QVQLVQSGAEVMKPGSSVKVSCKASGYTFSMYWLEWVRQAPGHGLEWMGEIDPGTFETNYNEKFKARVTFTADTSTSTAYMELSSLRSEDTAVYYCARFSHFSGSNYDYFDYWGQGTLVTVSS
VL: EIVMTQSPATLSVSPGERATLSCRASQSIGTNIHWYQQKPGQAPRLLIYYASESISGIPARFSGSGSGTEFTLTISSLQSEDFAVYYCQQSWSWPTTFGGGTKVEIKT
notes: ATCC PTA-5680; also called MAb 3 (CL-5I)
On to B4, for which, in the assay with human IgE [2], the “Fold Increase in Binding Affinity” value is 191 fold. For the same molecule, the dissociation constant (Kd) with human IgE [3] came out at 3.2 pM.

B5: C21 (Fab, V domains shown)
VH: QVQLQQSGAELMKPGASVKISCKTTGYTFSMYWLEWVKQRPGHGLEWVGEISPGTFTTNYNEKFKAKATFTADTSSNTAYLQLSGLTSEDSAVYFCARFSHFSGSNYDYFDYWGQGTSLTVSS
VL: DILLTQSPAILSVSPGERVSFSCRASQSIGTNIHWYQQRTDGSPRLLIKYASESISGIPSRFSGSGSGTEFTLNINSVESEDIADYYCQQSDSWPTTFGGGTKLEIK
notes: also called parent Fab of TES-C21; murine TES-C21 Fab
Consider B5, for which the concentration giving a half-maximal response (EC50 (read off the curve)) in assay [5] and in assay [1] was ~0.05 mg/L in each case.

B6: murine anti-IgE monoclonal antibody TES-C21 (antibody, V domains shown)
VH: QVQLQQSGAELMKPGASVKISCKTTGYTFSMYWLEWVKQRPGHGLEWVGEISPGTFTTNYNEKFKAKATFTADTSSNTAYLQLSGLTSEDSAVYFCARFSHFSGSNYDYFDYWGQGTSLTVSS
VL: DILLTQSPAILSVSPGERVSFSCRASQSIGTNIHWYQQRTDGSPRLLIKYASESISGIPSRFSGSGSGTEFTLNINSVESEDIADYYCQQSDSWPTTFGGGTKLEIK
notes: Murine parent antibody; also called murine mAb TES-C21; parent TES-C21
For the molecule B6, the Kd in the assay with human IgE [3] was found to be 614 pM.

The record behind these values is US20050169909A1 (TANOX, published 2005).
